Test results: patent US20220348666A1 (SUZHOU CONNECT BIOPHARMACEUTICALS, published 2022)
Values joined by “and” are separate entries in the source; they are usually repeats but may differ in a detail not shown here. Equal values may be shown once.

Legend:
[1] = target: T1, sIL-4Rα (antigen, expressed according to NM_000418.4) (human, UniProt P24394 26-232, limits assumed); test: indirect ELISA, sIL-4Rα coated on plate, enzyme labeled secondary antibody, average value of 6 runs
T1 construct: Soluble form coated on the ELISA plate; also called human interleukin-4 receptor alpha
T1 sequence (looked up): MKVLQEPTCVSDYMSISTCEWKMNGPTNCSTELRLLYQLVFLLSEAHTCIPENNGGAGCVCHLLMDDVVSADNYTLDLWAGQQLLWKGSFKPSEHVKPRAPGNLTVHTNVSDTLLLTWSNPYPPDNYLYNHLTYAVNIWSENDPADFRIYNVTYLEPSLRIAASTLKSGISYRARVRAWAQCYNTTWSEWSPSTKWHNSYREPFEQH
Procedure: (§1) The antigen (sIL-4Rα, expressed according to NM_000418.4) was coated and absorbed on a solid phase plate for ELISA, and then plate was washed, blocked and washed again before adding the samples to be tested for binding with the antigen. The samples to be tested were dilutions of the formulation prepared according to Example 6 of the present application, and the dilutions were obtained by diluting the formulation with 1% BSA to an antibody concentration of 1000 ng/mL, and subsequently performing a gradient dilution from an initial concentration of 1000 ng/mL to a concentration of 0 ng/mL. The unbound antibody was removed through washing after incubation, and an enzyme labeled secondary antibody was added for further incubation. After the unbound enzyme labeled secondary antibody was removed through washing, enzyme reaction substrate was added for color developing. Finally, the reaction was stopped by adding a stop solution, and absorbance values were read at 450 nm and 655 nm on a microplate reader. According to the absorbance values, half effective concentration EC₅₀ was calculated by curve fitting.

[2] = target: T2, human interleukin-4 receptor alpha on HEK Blue IL4/IL13 cells (human, UniProt P24394 26-825); test: cell-based or functional assay
T2 sequence (looked up): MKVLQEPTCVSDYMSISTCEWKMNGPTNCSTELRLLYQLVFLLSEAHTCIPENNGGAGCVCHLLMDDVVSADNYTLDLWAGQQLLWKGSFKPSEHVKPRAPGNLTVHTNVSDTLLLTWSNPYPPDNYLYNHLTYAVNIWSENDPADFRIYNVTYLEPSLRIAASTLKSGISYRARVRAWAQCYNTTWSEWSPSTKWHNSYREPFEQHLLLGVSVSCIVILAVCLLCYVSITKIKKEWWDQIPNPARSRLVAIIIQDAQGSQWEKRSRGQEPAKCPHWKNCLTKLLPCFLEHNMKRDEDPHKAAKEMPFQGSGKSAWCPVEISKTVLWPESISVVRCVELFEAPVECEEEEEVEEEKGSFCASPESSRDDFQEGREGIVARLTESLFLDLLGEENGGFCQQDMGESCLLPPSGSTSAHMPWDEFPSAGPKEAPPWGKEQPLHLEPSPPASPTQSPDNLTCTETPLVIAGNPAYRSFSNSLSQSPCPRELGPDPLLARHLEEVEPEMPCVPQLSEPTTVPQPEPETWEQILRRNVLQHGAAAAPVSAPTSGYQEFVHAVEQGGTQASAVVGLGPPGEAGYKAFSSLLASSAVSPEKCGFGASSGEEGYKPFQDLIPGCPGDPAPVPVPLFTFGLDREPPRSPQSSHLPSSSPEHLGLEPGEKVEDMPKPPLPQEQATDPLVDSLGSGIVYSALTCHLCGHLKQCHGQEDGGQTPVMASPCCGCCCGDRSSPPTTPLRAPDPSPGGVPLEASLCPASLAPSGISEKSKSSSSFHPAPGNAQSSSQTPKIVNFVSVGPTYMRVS

[3] = target: T1, sIL-4Rα (antigen, expressed according …); test: indirect ELISA, sIL-4Rα coated on plate, enzyme labeled secondary antibody, run 4
Procedure: as §1

[4] = target: T1, sIL-4Rα (antigen, expressed according …); test: indirect ELISA, sIL-4Rα coated on plate, enzyme labeled secondary antibody, run 6
Procedure: as §1

[5] = target: T1, sIL-4Rα (antigen, expressed according …); test: indirect ELISA, sIL-4Rα coated on plate, enzyme labeled secondary antibody, run 3
Procedure: as §1

[6] = target: T1, sIL-4Rα (antigen, expressed according …); test: indirect ELISA, sIL-4Rα coated on plate, enzyme labeled secondary antibody, run 5
Procedure: as §1

[7] = target: T1, sIL-4Rα (antigen, expressed according …); test: indirect ELISA, sIL-4Rα coated on plate, enzyme labeled secondary antibody, run 1
Procedure: as §1

[8] = target: T1, sIL-4Rα (antigen, expressed according …); test: indirect ELISA, sIL-4Rα coated on plate, enzyme labeled secondary antibody, run 2
Procedure: as §1

EC50 [1]: 1.69 ng/mL and 1.56 ng/mL | IC50 (average value) of blocking STAT-6 signal transduction, HEK Blue IL4/IL13 cells with 0.5 ng/mL IL4, Quanti-blue absorbance at 650 nM [2]: 4.19 ng/mL and 4.51 ng/mL | EC50 [3]: 1.85 ng/mL and 1.8 ng/mL | EC50 [4]: 1.53 ng/mL and 1.45 ng/mL | EC50 [5]: 1.84 ng/mL and 1.77 ng/mL | EC50 [6]: 1.77 ng/mL and 1.84 ng/mL | EC50 [7]: 1.59 ng/mL and 1.4 ng/mL | EC50 [8]: 1.52 ng/mL and 1.28 ng/mL
B1: CBP-201 (antibody, human IgG4 S228P, kappa, V domains shown)
VH: EVQLVESGGGLVQPGGSLRLSCAASGFTFSRNAMFWVRQAPGKGLEWVSGIGTGGATSYADSVKGRFTISRDNAKNSLYLQMNSLRAEDTAVYYCARGRYYFDYWGQGTLVTVSS
VL: EIVLTQSPGTLSLSPGERATLSCRASQSVSSSYLAWYQQKPGQAPRLLIYGASSRATGIPDRFSGSGSGTDFTLTISRLEPEDFAVYYCQQYDHSAGWTFGQGTKVEIKR
notes: Monoclonal antibody; also called CBP-201 antibody; CBP-201 formulation
